Data on one protein can be found in patent publication US20240197738.

The series deals with EWS-FLI1-3A (S464A/S465A/S466A).

B1: OTUD7A (protein)
chain: MVSSVLPNPTSAECWAALLHDPMTLDMDAVLSDFVRSTGAEPGLARDLLEGKNWDLTAALSDYEQLRQVHTANLPHVFNEGRGPKQPEREPQPGHKVERPCLQRQDDIAQEKRLSRGISHASSAIVSLARSHVASECNNEQFPLEMPIYTFQLPDLSVYSEDFRSFIERDLIEQATMVALEQAGRLNWWSTVCTSCKRLLPLATTGDGNCLLHAASLGMWGFHDRDLVLRKALYTMMRTGAEREALKRRWRWQQTQQNKEEEWEREWTELLKLASSEPRTHFSKNGGTGGGVDNSEDPVYESLEEFHVFVLAHILRRPIVVVADTMLRDSGGEAFAPIPFGGIYLPLEVPPNRCHCSPLVLAYDQAHFSALVSMEQRDQQREQAVIPLTDSEHKLLPLHFAVDPGKDWEWGKDDNDNARLAHLILSLEAKLNLLHSYMNVTWIRIPSETRAPLAQPESPTASAGEDVQSLADSLDSDRDSVCSNSNSNNGKNGKDKEKEKQRKEKDKTRADSVANKLGSFSKTLGIKLKKNMGGLGGLVHGKMGRANSANGKNGDSAERGKEKKAKSRKGSKEESGASASTSPSEKTTPSPTDKAAGASPAEKGGGPRGDAWKYSTDVKLSLNILRAAMQGERKFIFAGLLLTSHRHQFHEEMIGYYLTSAQERFSAEQEQRRRDAATAAAAAAAAAAATAKRPPRRPETEGVPVPERASPGPPTQLVLKLKERPSPGPAAGRAARAAAGGTASPGGGARRASASGPVPGRSPPAPARQSVIHVQASGARDEACAPAVGALRPCATYPQQNRSLSSQSYSPARAAALRTVNTVESLARAVPGALPGAAGTAGAAEHKSQTYTNGFGALRDGLEFADADAPTARSNGECGRGGPGPVQRRCQRENCAFYGRAETEHYCSYCYREELRRRREARGARP
Consider B1, for which the “3A-EWS-FLI1 protein level after OTUD7A depletion (immunoblot, FIG. 3I)” value is given as “depletion of OTUD7A failed to reduce 3A-EWS-FLI1 protein levels”.
